B1: recombinant CARD8-CARD (451-537) (domain or fragment, human, UniProt Q9Y2G2-5 451-537, looked up)
chain: AAFVKENHRQLQARMGDLKGVLDDLQDNEVLTENEKELVEQEKTRQSKNEALLSMVEKKGDLALDVLFRSISERDPYLVSYLRQQNL
notes: CARD domain of human CARD8, residues 451-537; the numbers fit the 537-residue isoform; Called 'untagged' in the seeding experiment, there meaning without the SNAP tag; also called CARD8-CARD filaments; CARD8-CARD without SNAP; source: E. coli BL21(DE3), purified (Ni-NTA, SEC)
B2: CASP1-CARD-SNAP (domain or fragment, human, UniProt P29466 1-92, looked up)
chain: MADKVLKEKRKLFIRSMGEGTINGLLDELLQTRVLNKEEMEKVKRENATVMDKTRALIDSVIPKGAQACQICITYICEEDSYLAGTLGLSAD
modifications: Alexa Fluor 647 (BG-Alexa dye) on the SNAP tag in the native gel assay
notes: CARD domain of human caspase-1, residues 1-92; A 3C protease site lies between the CARD and the SNAP tag; also called SNAP-tagged CASP1-CARD; fluorescently labeled CASP1-CARD; not shown: SNAP, C-terminal, kept
B3: recombinant NLRP1-CARD (filament solved by cryo-EM) (domain or fragment, human, UniProt Q9C000 1374-1466, looked up)
chain: DAPQLLHFVDQYREQLIARVTSVEVVLDKLHGQVLSQEQYERVLAENTRPSQMRKLFSLSQSWDRKCKDGLYQALKETHPHLIMELWEKGSKK
notes: CARD domain of human NLRP1, construct 1374-1466; the results say that trimming of the last eight a.a; (1466-1473) stabilised the homogeneous single filament; two CARD constructs (1374-1466, 1374-1473) were cloned; also called NLRP1-CARD core filament; source: E. coli BL21(DE3), purified (Ni-NTA, SEC), concentrated to ~400 uM
B4: recombinant NLRP1-FIIND^UPA-CARD (a.a. 1213-1473), bacteria-derived (domain or fragment, human, UniProt Q9C000 1213-1473, looked up)
chain: SPLGVLLKMIHNALRFIPVTSVVLLYHRVHPEEVTFHLYLIPSDCSIRKAIDDLEMKFQFVRIHKPPPLTPLYMGCRYTVSGSGSGMLEILPKELELCYRSPGEDQLFSEFYVGHLGSGIRLQVKDKKDETLVWEALVKPGDLMPATTLIPPARIAVPSPLDAPQLLHFVDQYREQLIARVTSVEVVLDKLHGQVLSQEQYERVLAENTRPSQMRKLFSLSQSWDRKCKDGLYQALKETHPHLIMELWEKGSKKGLLPLSS
notes: C-terminal auto-cleavage fragment (FIIND^UPA-CARD) of human NLRP1, a.a; 1213-1473; also called NLRP1-FIIND^UPA-CARD filaments; SNAP-NLRP1-FIIND^UPA-CARD
B5: NLRC4-CARD filament (SNAP tag cleaved off), solved by cryo-EM (domain or fragment, human, UniProt Q9NPP4 1-102, looked up)
chain: MNFIKDNSRALIQRMGMTVIKQITDDLFVWNVLNREEVNIICCEKVEQDAARGIIHMILKKGSESCNLFLKSLKEWNYPLFQDLNGQSLFHQTSEGDLDDLA
notes: CARD domain of human NLRC4, residues 1-102; also called NLRC4-CARD thin filament; source: E. coli BL21(DE3), purified; filaments grown from SNAP-tagged monomer with seeds, SNAP cleaved by 3C protease, Superose 6; not shown: SNAP, C-terminal, cleaved

Data set [1] deals with the molecule itself. Put plainly: cryo-EM structure; helical reconstruction of CARD filaments; ~2 mg/ml on Quantifoil R1.2/1.3 grids, Titan Krios 300 kV, RELION 3.0.
In the data set “CASP1-CARD-SNAP” the target is B2. Kind of data set: native gel or EMSA; in vitro oligomerization assay: Alexa Fluor 647-labelled monomeric SNAP-ASC-CARD or CASP1-CARD-SNAP (10 uM) mixed with 20 or 5 uM seed oligomer for 15 min at room temperature; Bis-Tris native PAGE, fluorescence scan. Conditions: both partners purified. (In general: A gel shift assay detects complexes by their altered migration in electrophoresis.)

Data set [2] deals with T1, NLRC4-CARD without SNAP (filament seed) (human, UniProt Q9NPP4 1-102).
T1 construct: CARD domain of human NLRC4, residues 1-102, construct without SNAP tag; source: E. coli BL21(DE3), purified (Ni-NTA, SEC), oligomeric seed fraction
T1 sequence (looked up): B5 chain
The data set is described as above. Conditions: both partners purified.

Data set [3] deals with the molecule itself. The description is as above.
Data set [4] concerns the molecule itself. Put plainly: negative stain EM; recombinant NLRP1 constructs at various concentrations (Fig. 1e, f); samples below ~200 uM; NLRP1-CARD alone or with FIIND^UPA at 1:1 molar ratio.

Consider five molecules from article PMC7794362, “Structural basis for distinct inflammasome complex assembly by human NLRP1 and CARD8” (Nature Communications, 2021).

B1: the binding result (in data set [1]; with CASP1-CARD-SNAP) was “binds” each time.
Turning to B2, the binding result in data set [2] and in data set [3] was “binds” each time.
Turning to B3, the binding result in data set [1] is given as “binds”.
Take B4: the “fold lower concentration requirement for oligomerization, against NLRP1-CARD” value in data set [4] is no less than 50 fold.
For the molecule B5, the binding result in data set [1] is reported as “binds”.
